# Measurements from US20240343800A1 (Merck KGaA, published 2024).
# Tests used:
# [1] = target: T1, human CD3 (on Jurkat T cells or human CD8+ T cells) (human, UniProt P07766 23-207; P09693 23-182; P04234 22-171; P20963 22-164); test: flow cytometry; reference: 69A02 and 82H02 TCEs in Format 1A
# T1 construct: Entries are printed with signal peptides; also called huCD3; CD3ε
# Protocol: (§1) The plates were then covered with foil to avoid direct light and incubated for 60 minutes at 4° C. […] After incubating for 30 minutes at 4° C., the cells were washed twice with 200 μL of PBS by centrifugation at 500×g for 5 minutes at room temperature and resuspended into 100 μL of fixation buffer (BioLegend, Cat No: 420801). The samples were then analyzed on a flow cytometer for binding signal using FlowJo software. ROR and CD3 binding EC₅₀s (concentration vs mean fluorescence intensity (MFI)) for reference molecules and test bispecific TCEs were obtained using 4-parameter non-linear regression curve fitting in GraphPad Prism.
# [2] = target: T1, human CD3 (on Jurkat T cells or human …); test: flow cytometry, human CD8+ T cells
# Protocol: as §1, with “After 15-minutes of incubation at room temperature, the cells were washed twice with 200 μL of PBS by centrifugation at 500×g for 5 minutes at room temperature and resuspended in […] of 10% goat serum in BD staining buffer (BD Biosciences, Cat No: 554657). […] The plates” for “The plates”
# [3] = target: T1, human CD3 (on Jurkat T cells or human …); test: flow cytometry; reference: 69A02 and 82H02 TCEs in Format 1B
# Protocol: as §1
# [4] = target: T2, chimeric CD3ε of human CD3 knock-in C57BL/6 mice (ectodomain of human CD3, transmembrane and cytosolic … (human; mouse, UniProt P07766 23-126; P22646 109-189); test: flow cytometry, T cells of huCD3 knock-in C57BL/6 mice
# T2 construct: extracellular domain;domain: transmembrane and cytosolic domains; On T cells isolated from the knock-in mice; also called human/mouse chimeric CD3; huCD3 knock-in
# T2 sequence (P07766 other isoform, or with tags, fused parts or gaps mutant): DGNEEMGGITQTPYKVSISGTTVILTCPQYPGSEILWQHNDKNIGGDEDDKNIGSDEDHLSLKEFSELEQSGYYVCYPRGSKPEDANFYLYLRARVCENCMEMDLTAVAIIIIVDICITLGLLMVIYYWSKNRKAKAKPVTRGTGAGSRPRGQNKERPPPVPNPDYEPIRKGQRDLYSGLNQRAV
# Protocol: as §1
# [5] = target: T1, human CD3 (on Jurkat T cells or human …); test: flow cytometry, human CD8+ T cells; reference: 82H02 TCE #1 and #3
# Protocol: as §1, with “After 15-minutes of incubation at room temperature, the cells were washed twice with 200 μL of PBS by centrifugation at 500×g for 5 minutes at room temperature and resuspended in […] of 10% goat serum in BD staining buffer (BD Biosciences, Cat No: 554657). […] The plates” for “The plates”
# [6] = target: T1, human CD3 (on Jurkat T cells or human …); test: flow cytometry, Jurkat T cells
# Protocol: as §1, with “After washing twice with 200 μL of phosphate buffered saline (PBS) by centrifugation at 500×g for 5 minutes at room temperature, the cells were resuspended in 100 μL of Live/Dead fixable green working buffer (ThermoFisher Scientific, Cat No: L23101; one vial of Live/Dead fixable green powder was dissolved into 50 μL of DMSO and 1 μL of dissolved Live/Dead fixable green was added to 1 mL of PBS to prepare the working buffer). After 15-minutes of incubation at room temperature, the cells were washed twice with 200 μL of PBS by centrifugation at 500×g for 5 minutes at room temperature and resuspended in […] of 10% goat serum in BD staining buffer (BD Biosciences, Cat No: 554657). […] The plates” for “The plates”
# T1 sequence (P07766 23-207 limits assumed, chain 1 of 4): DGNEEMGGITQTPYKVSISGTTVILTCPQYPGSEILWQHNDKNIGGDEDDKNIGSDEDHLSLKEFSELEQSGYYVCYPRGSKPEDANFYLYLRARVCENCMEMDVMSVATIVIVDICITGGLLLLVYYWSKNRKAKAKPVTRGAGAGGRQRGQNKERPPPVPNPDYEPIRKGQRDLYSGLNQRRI
# T1 sequence (P09693 23-182 limits assumed, chain 2 of 4): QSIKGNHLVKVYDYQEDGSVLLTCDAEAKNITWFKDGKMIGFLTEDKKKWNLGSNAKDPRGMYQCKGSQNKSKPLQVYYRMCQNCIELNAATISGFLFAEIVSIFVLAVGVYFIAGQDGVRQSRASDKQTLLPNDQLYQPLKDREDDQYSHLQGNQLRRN
# T1 sequence (P04234 22-171 limits assumed, chain 3 of 4): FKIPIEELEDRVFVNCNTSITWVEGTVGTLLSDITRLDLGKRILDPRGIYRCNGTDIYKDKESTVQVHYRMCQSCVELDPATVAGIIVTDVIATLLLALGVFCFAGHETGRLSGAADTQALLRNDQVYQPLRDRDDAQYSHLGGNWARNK
# T1 sequence (P20963 22-164 limits assumed, chain 4 of 4): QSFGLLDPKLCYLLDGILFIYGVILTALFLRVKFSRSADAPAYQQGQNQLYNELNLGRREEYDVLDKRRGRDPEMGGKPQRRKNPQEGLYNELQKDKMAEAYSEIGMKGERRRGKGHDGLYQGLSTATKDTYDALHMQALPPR
binder,measurement,setting,value
"bispecific reference T cell-binder (bispecific antibody, ROR1 x CD3 bispecific of four polypeptides) light: ELVLTQSPSVSAALGSPAKITCTLSSAHKTDTIDWYQQLQGEAPRYLMQVQSDGSYTKRPGVPDRFSGSSSGADRYLIIPSVQADDEADYYCGADYIGGYVFGGGTQLTVLGQPKAAPSVTLFPPSSEELQANKATLVCLISDFYPGAVTVAWKADSSPVKAGVETTTPSKQSNNKYAASSYLSLTPEQWKSHKSYSCQVTHEGSTVEKTVAPTECS heavy 1: not shown heavy 2: QEQLVESGGRLVTPGGSLTLSCKASGFDFSAYYMSWVRQAPGKGLEWIATIYPSSGKTYYATWVNGRFTISSDNAQNTVDLQMNSLTAADRATYFCARDSYADDGALFNIWGPGTLVTISSASTKGPSVFPLAPSSKSTSGGTAALGCLVKDYFPEPVTVSWNSGALTSGVHTFPAVLQSSGLYSLSSVVTVPSSSLGTQTYICNVNHKPSNTKVDKKVEPKSCDKTHTCPPCPAPEAAGGPSVFLFPPKPKDTLMISRTPEVTCVVVDVSHEDPEVKFNWYVDGVEVHNAKTKPREEQYNSTYRVVSVLTVLHQDWLNGKEYKCKVSNKALGAPIEKTISKAKGQPREPQVCTLPPSRDELTKNQVSLSCAVKGFYPSDIAVEWESNGQPENNYKTTPPVLDSDGSFFLVSKLTVDKSRWQQGNVFSCSVMHEALHNHYTQKSLSLSPGK QAVVTQEPSLTVSPGGTVTLTCGSSTGAVTTSNYANWVQEKPGQAFRGLIGGTNKRAPGTPARFSGSLLGGKAALTLSGAQPEDEAEYYCALWYSNLWVFGGGTKLTVLSSASTKGPSVFPLAPSSKSTSGGTAALGCLVKDYFPEPVTVSWNSGALTSGVHTFPAVLQSSGLYSLSSVVTVPSSSLGTQTYICNVNHKPSNTKVDKKVEPKSC",fold lower apparent binding affinity,[1],~15 fold
same,EC50,[2],266 nM
same,fold lower apparent binding affinity,[3],~4 fold
same,EC50,[4],259 nM
same,fold lower affinity,[5],~100 fold
same,EC50,[6],157 nM
